# T1: β1-RlucII (human, UniProt Q10567 1-949)
# T1 construct: β1 subunit of AP-1, human; amplified by PCR minus the stop codon; also called β-RlucII; source: HEK293T, transfected, in live cells (BRET), cell fractions and lysate (co-IP); not shown: RlucII, C-terminal, kept
# T1 sequence (looked up): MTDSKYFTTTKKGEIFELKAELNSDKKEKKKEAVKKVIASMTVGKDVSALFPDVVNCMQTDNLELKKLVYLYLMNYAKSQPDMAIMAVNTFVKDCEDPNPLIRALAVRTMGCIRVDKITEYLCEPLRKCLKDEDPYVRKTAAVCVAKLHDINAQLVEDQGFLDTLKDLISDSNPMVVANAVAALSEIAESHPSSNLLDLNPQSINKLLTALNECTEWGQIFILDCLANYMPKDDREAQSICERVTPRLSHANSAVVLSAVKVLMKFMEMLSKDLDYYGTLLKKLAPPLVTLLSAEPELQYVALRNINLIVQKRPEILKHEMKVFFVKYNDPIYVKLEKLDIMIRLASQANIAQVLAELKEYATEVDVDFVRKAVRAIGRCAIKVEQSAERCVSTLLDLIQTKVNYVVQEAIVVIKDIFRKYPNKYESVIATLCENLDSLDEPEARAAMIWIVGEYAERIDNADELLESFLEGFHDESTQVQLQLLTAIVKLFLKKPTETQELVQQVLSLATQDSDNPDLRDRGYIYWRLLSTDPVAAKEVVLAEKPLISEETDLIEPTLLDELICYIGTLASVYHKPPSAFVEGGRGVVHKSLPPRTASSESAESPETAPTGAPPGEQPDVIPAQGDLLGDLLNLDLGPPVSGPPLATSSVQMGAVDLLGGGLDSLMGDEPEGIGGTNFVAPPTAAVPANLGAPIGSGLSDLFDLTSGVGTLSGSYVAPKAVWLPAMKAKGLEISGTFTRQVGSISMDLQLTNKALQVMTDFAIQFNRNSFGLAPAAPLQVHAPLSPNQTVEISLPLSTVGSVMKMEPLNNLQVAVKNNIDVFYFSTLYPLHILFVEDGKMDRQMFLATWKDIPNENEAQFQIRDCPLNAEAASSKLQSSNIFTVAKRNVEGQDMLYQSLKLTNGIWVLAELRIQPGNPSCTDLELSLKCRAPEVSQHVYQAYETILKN
# B1: β1-GFP10 (AP-1 β1 subunit, wild type) (natural protein, human, UniProt Q10567 1-949, looked up)
# chain: T1 sequence (looked up)
# notes: β1 subunit of the adaptor protein complex 1 (AP-1), human; amplified by PCR minus the stop codon; also called β-GFP10; full-length β1-GFP10; source: HEK293T, transfected, in live cells (BRET), cell fractions and lysate (co-IP); not shown: GFP10, C-terminal, kept
# Biological target: T1, β1-RlucII
# Assay: FRET or BRET; BRET^2 in live HEK293T cells (γ/µ1 also in Arf1-KO cells; some panels with Brefeldin A 10 µM 15 min or co-expressed Arf1-HA forms): low constant amount of the RlucII donor, increasing amounts of the GFP10 acceptor; coelenterazine 400a 5 µM; BRET50 and BRETmax from a one-site saturation fit
# Conditions: partners not purified
binder,measurement,value
B1,fold decrease of BRET50 in the presence of Arf1^Q71L-HA,~4 fold
